Test results taken from patent US20250043302A1, “MUTATED HYDROXYPHENYLPYRUVATE DIOXYGENASE POLYPEPTIDE, AND CODING GENE AND USE THEREOF” (BEIJING DABEINONG BIOTECHNOLOGY CO., LTD., priority 2021, published 2025).
Where a chain is given by its changes, count along the chain named. Names may count otherwise.

B1: GsHPPD-02: nucleotide sequence encoding wild-type Gossypium hirsutum HPPD; vector DBN11738 (nucleic acid)
DNA: ATGGTTCAAACAAATCAATCTGGTTCTGGGAATGATTTCAAGCTGGTTGGTTTCTCAAATTTTGTGCGTAGCAATCCCAAATCAGACCGCTTCACGGTCAAGAGATTCCACCACATTGAATTTTGGTGCACTGATGCCACTAATGTGGCGAGGAGGTTTTCATGGGGTTTAGGGATGCAGTTCGTCGCCAAGAGTGACCTCTCCACAGGAAATTTGACGCATGCAAGCTACCTGCTGCGGAGCCGCGACTTGAATTTCCTGTTTACAGCACCATATTCACCCAGTATTGCAGTTGCTCAAAACCTTTCGCCACAAAGCACTGCTTCCATACCTTCATTTGATCACTCGCTTTGTCGGTCCTTTGCTGCAACACATGGACTTGGCGTCAGAGCAATTGCCATCGAGGTGGACGACGCCGAAACTGCCTTCACCACGAGCGTGACACATGGCGCGCTCCCTTTTTGTCCACCAACACCACTAGGAGATGTGGCTACAATTGCTGAAGTTAAATTATATGGTGATGTTGTGCTCAGATATGTTTCTTACACCACAACCATCAACTCCGACCATGATTTTCTGCCTGGTTTTGAGAAGATTGAAGATACTCTATCGTATCCTTTGGATTATGGCCTGCGTCGGCTCGATCATGCTGTTGGCAACGTACCTGAATTAGGTCCTGCTGTATCTTATGTGAAATCTTTTACTGGGTTCCATGAGTTTGCAGAGTTCACCGCTGAGGATGTAGGAACAAGTGAATCTGGGCTGAACTCAGTTGTTTTGGCCAACAATGAGGAAATGGTCCTCTTACCAATGAACGAGCCGGTGTTCGGCACTAAGCGCAAATCTCAAATACAGACCTACTTGGAGCACAATGAAGGAGCTGGTGTGCAGCACCTCGCCCTCGTCTCGGAGGACATCTTCAAAACTTTAAGGGAGATGAGGAAACGATCCTTTGTGGGAGGATTTGAATTCATGCCTTCTCCGCCGCCGACATACTACAAGAAGCTCAAGCAGCGCGCGGGGGACATTTTGTCTGATGAGCAGATCAAGGAGTGTGAAGAGCTTGGGATTCTTGTTGATAGAGATGATCAAGGAACGCTTCTGCAGATATTTACCAAGCCCGTCGGCGACCGGCCTACTATATTCATTGAGATCATCCAGAGAATTGGTTGCATGGTGAAGGATGAAGAAGGGAAACAGTACCAGAAGGGCGGCTGCGGCGGGTTTGGAAAAGGAAACTTCAGTGAGCTGTTTAAAAGTATAGAGGAGTATGAAAAGAGCTTGGAAGCAAAACAATCACAAAATCCATGA
modifications: GsHPPD-02 Nucleotide Sequence
notes: vector DBN11738
B2: GsHPPDm-F372A-F383W-02: nucleotide sequence encoding Gossypium hirsutum HPPD with F372A+F383W; vector DBN11741 (nucleic acid)
DNA: B1 DNA with T1111G, T1112C, T1113C, T1145G, C1146G
modifications: GsHPPDm-F372A-F383W-02 Nucleotide Sequence
notes: vector DBN11741

Columns and labels:
Assay type in all cases: in vivo
[1] = test system: Arabidopsis thaliana T1 plants; experiment: Mesotrione tolerance of transgenic Arabidopsis thaliana T1 plants (spray, bleached leaf area grade, damage score); parameters: Scores: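 damage score 0-100 computed as Σ(N×S)/(T×M)×100 over grades 0-3 with higher meaning more damage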; conditions: Arabidopsis thaliana T1 plants; for Grade 0 (classification and statistics of the grade of pesticide damage; number of plants) / Grade 1 (classification and statistics of the grade of pesticide damage; number of plants) / Grade 2 (classification and statistics of the grade of pesticide damage; number of plants) / Grade 3 (classification and statistics of the grade of pesticide damage; number of plants): 16 plants
Method in brief: (§1)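 Damage graded 0–3 from the proportion of bleached leaf area 7 days after spraying. Plants were glufosinate-selected T1 lines, 18 days after sowing, plus vector and wild-type controls. Rates: mesotrione 52.5–420, isoxaflutole 35–280, topramezone 25–200 g ai/ha, with water (0×).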

[2] = test system: Arabidopsis thaliana T1 plants; experiment: Isoxaflutole tolerance of transgenic Arabidopsis thaliana T1 plants (spray, bleached leaf area grade, damage score); parameters: Scores (pesticide damage): scale not given here; conditions: spray, Arabidopsis thaliana T1 plants; for Classification and statistics of the grade of pesticide damage: Grade 0 (number of plants) / Classification and statistics of the grade of pesticide damage: Grade 1 (number of plants) / Classification and statistics of the grade of pesticide damage: Grade 2 (number of plants) / Classification and statistics of the grade of pesticide damage: Grade 3 (number of plants): 16 plants
Method in brief: as §1

[3] = test system: Arabidopsis thaliana T1 plants; experiment: Topramezone tolerance of transgenic Arabidopsis thaliana T1 plants (spray, bleached leaf area grade, damage score); conditions: 7 DAT, Table 4; for Classification and statistics of the grade of pesticide damage: Grade 0 / Classification and statistics of the grade of pesticide damage: Grade 1 / Classification and statistics of the grade of pesticide damage: Grade 2 / Classification and statistics of the grade of pesticide damage: Grade 3: number of plants; for Scores: pesticide damage score 0-100
Method in brief: as §1

[4] = isoxaflutole 35 g ai/ha (0.5x field concentration)
[5] = isoxaflutole 70 g ai/ha (1x field concentration)

Row | Molecule | Resistance evaluation ([1]; mesotrione 52.5 g ai/ha) | Scores ([1]; mesotrione 52.5 g ai/ha) | Grade 0 (classification and statistics of the grade of pesticide damage; number of plants) ([1]; mesotrione 52.5 g ai/ha) | Grade 1 (classification and statistics of the grade of pesticide damage; number of plants) ([1]; mesotrione 52.5 g ai/ha) | Grade 2 (classification and statistics of the grade of pesticide damage; number of plants) ([1]; mesotrione 52.5 g ai/ha) | Grade 3 (classification and statistics of the grade of pesticide damage; number of plants) ([1]; mesotrione 52.5 g ai/ha) | Resistance evaluation ([1]; mesotrione 105 g ai/ha) | Scores ([1]; mesotrione 105 g ai/ha) | Grade 0 (classification and statistics of the grade of pesticide damage; number of plants) ([1]; mesotrione 105 g ai/ha) | Grade 1 (classification and statistics of the grade of pesticide damage; number of plants) ([1]; mesotrione 105 g ai/ha) | Grade 2 (classification and statistics of the grade of pesticide damage; number of plants) ([1]; mesotrione 105 g ai/ha) | Grade 3 (classification and statistics of the grade of pesticide damage; number of plants) ([1]; mesotrione 105 g ai/ha) | Resistance evaluation [2, 4] | Scores (pesticide damage) [2, 4] | Classification and statistics of the grade of pesticide damage: Grade 0 (number of plants) [2, 4] | Classification and statistics of the grade of pesticide damage: Grade 1 (number of plants) [2, 4] | Classification and statistics of the grade of pesticide damage: Grade 2 (number of plants) [2, 4] | Classification and statistics of the grade of pesticide damage: Grade 3 (number of plants) [2, 4] | Resistance evaluation [2, 5] | Scores (pesticide damage) [2, 5] | also measured
1 | B1 | Non-resistant | 100 | 0 | 0 | 0 | 16 | Non-resistant | 100 | 0 | 0 | 0 | 16 | Non-resistant | 100 | 0 | 0 | 0 | 16 | Non-resistant | 100 | Classification and statistics of the grade of pesticide damage: Grade 0 (number of plants) [2, 5]: 0; Classification and statistics of the grade of pesticide damage: Grade 1 (number of plants) [2, 5]: 0; Classification and statistics of the grade of pesticide damage: Grade 2 (number of plants) [2, 5]: 0; Classification and statistics of the grade of pesticide damage: Grade 3 (number of plants) [2, 5]: 16; Classification and statistics of the grade of pesticide damage: Grade 0 ([3]; topramezone 25 g ai/ha (1×)): 0; Classification and statistics of the grade of pesticide damage: Grade 1 ([3]; topramezone 25 g ai/ha (1×)): 0; Classification and statistics of the grade of pesticide damage: Grade 2 ([3]; topramezone 25 g ai/ha (1×)): 0; Classification and statistics of the grade of pesticide damage: Grade 3 ([3]; topramezone 25 g ai/ha (1×)): 16; Classification and statistics of the grade of pesticide damage: Grade 0 ([3]; topramezone 100 g ai/ha (4×)): 0; Classification and statistics of the grade of pesticide damage: Grade 1 ([3]; topramezone 100 g ai/ha (4×)): 0; Classification and statistics of the grade of pesticide damage: Grade 2 ([3]; topramezone 100 g ai/ha (4×)): 0; Classification and statistics of the grade of pesticide damage: Grade 3 ([3]; topramezone 100 g ai/ha (4×)): 16; Scores ([3]; topramezone 25 g ai/ha (1×)): 100; Scores ([3]; topramezone 100 g ai/ha (4×)): 100; Resistance evaluation ([3]; topramezone 25 g ai/ha (1×)): non-resistant (non-resistant plants (scores 68-100)); Resistance evaluation ([3]; topramezone 100 g ai/ha (4×)): non-resistant (non-resistant plants (scores 68-100))
2 | B2 | Moderately | 33 | 3 | 10 | 3 | 0 | Non-resistant | 77 | 0 | 0 | 11 | 5 | Highly | 15 | 9 | 7 | 0 | 0 | Poorly | 48 | Classification and statistics of the grade of pesticide damage: Grade 0 (number of plants) [2, 5]: 3; Classification and statistics of the grade of pesticide damage: Grade 1 (number of plants) [2, 5]: 5; Classification and statistics of the grade of pesticide damage: Grade 2 (number of plants) [2, 5]: 6; Classification and statistics of the grade of pesticide damage: Grade 3 (number of plants) [2, 5]: 2; Classification and statistics of the grade of pesticide damage: Grade 0 ([3]; topramezone 25 g ai/ha (1×)): 16; Classification and statistics of the grade of pesticide damage: Grade 1 ([3]; topramezone 25 g ai/ha (1×)): 0; Classification and statistics of the grade of pesticide damage: Grade 2 ([3]; topramezone 25 g ai/ha (1×)): 0; Classification and statistics of the grade of pesticide damage: Grade 3 ([3]; topramezone 25 g ai/ha (1×)): 0; Classification and statistics of the grade of pesticide damage: Grade 0 ([3]; topramezone 100 g ai/ha (4×)): 5; Classification and statistics of the grade of pesticide damage: Grade 1 ([3]; topramezone 100 g ai/ha (4×)): 7; Classification and statistics of the grade of pesticide damage: Grade 2 ([3]; topramezone 100 g ai/ha (4×)): 2; Classification and statistics of the grade of pesticide damage: Grade 3 ([3]; topramezone 100 g ai/ha (4×)): 2; Scores ([3]; topramezone 25 g ai/ha (1×)): 0; Scores ([3]; topramezone 100 g ai/ha (4×)): 35; Resistance evaluation ([3]; topramezone 25 g ai/ha (1×)): highly; Resistance evaluation ([3]; topramezone 100 g ai/ha (4×)): poorly
